Laboratory results: patent US20220396632A1 (VERSEAU THERAPEUTICS, published 2022)
Non-standard residues stand in square brackets, D forms with d. No end group written: not given here. *: point of attachment. Biotin = O=C1N[C@H]2[C@H](CS[C@H]2CCCCC(=O)*)N1; sY = N[C@@H](Cc1ccc(OS(=O)(=O)O)cc1)C(=O)O

T1: Sulfotyrosine CCR2b biotin peptide (human)
T1 construct: also called CCR2b peptide
T1 peptide: TTFFD[sY]D[sY]GAPSHGGK(Biotin)

T2: Biotin Y46,48,51(SO3) PSGL-1(42-62) peptide (human, sulfotyrosine at Y46, Y48 and Y51; C-terminal Lys-biotin)
T2 construct: also called fully sulfated N-terminal PSGL-1 peptide
T2 peptide: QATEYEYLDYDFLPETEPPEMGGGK

T3: Recombinant human PSGL-1(ECD)-hFc1 (R&D Systems, Cat. 3345-PS) (human, UniProt Q14242 42-305)
T3 construct: Bought; Gln42-Val295 counted on AAC50061; also called PSGL-1-Fc; PSGL-1-hFc1 chimera; not shown: human IgG1 Fc, Pro100-Lys330
T3 sequence: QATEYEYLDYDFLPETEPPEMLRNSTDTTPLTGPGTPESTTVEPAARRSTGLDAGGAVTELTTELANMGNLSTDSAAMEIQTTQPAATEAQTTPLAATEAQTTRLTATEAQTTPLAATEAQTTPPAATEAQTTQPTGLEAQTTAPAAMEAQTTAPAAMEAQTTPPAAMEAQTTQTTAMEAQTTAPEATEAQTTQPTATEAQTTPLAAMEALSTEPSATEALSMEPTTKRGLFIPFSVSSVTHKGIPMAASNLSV

T4: Biotin PSGL-1(290-310) peptide (human, N-terminal acetyl; C-terminal Lys-biotin)
T4 peptide: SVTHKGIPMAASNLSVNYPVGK

T5: Human PSGL-1(ECD)-HIS (human, UniProt Q14242 42-319)
T5 construct: also called Human PSGL-1-His
T5 sequence: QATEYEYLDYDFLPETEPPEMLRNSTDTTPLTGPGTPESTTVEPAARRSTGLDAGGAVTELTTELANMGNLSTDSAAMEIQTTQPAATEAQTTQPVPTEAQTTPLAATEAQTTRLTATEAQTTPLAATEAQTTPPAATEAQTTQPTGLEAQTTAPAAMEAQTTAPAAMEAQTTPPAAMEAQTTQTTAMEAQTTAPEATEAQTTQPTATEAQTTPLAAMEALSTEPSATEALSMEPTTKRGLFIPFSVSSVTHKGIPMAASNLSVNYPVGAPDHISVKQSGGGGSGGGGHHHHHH

T6: Biotin PSGL-1(105-125) peptide (human, N-terminal acetyl; C-terminal Lys-biotin)
T6 peptide: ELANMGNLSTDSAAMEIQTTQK

T7: 42-80 (C-terminal Lys-biotin)
T7 construct: also called Biotin PSGL-1(42-80) peptide
T7 peptide: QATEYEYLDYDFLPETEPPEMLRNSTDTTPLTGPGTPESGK

T8: Biotin PSGL-1(42-62) peptide, unmodified (human, C-terminal Lys-biotin)
T8 construct: Residues 42-62 followed by GGGK-biotin; also called WT; wild-type
T8 peptide: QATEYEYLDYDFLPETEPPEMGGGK

T9: PSGL-1(42-62) N-terminal peptide, sulfation state not told at the place (human, not fully specified; sulfation of Y46, Y48, Y51 not stated for these table columns)
T9 peptide: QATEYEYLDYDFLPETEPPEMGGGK


Experiments:
[1] = target: T1, Sulfotyrosine CCR2b biotin peptide; assay: ELISA, plate-bound peptide
[2] = target: T2, Biotin Y46,48,51(SO3) PSGL-1(42-62) …; assay: ELISA, plate-bound peptide
[3] = target: T3, Recombinant human PSGL-1(ECD)-hFc1 (R&D …); assay: Octet tandem; competitor 18F17
Method: (§1) Antibody binning was performed by ForteBio Octet® using a tandem assay format, with anti-human IgG biosensor-immobilized PSGL-1(ECD)-hFc1 protein, binding of competitor mAb followed by analyte antibody. As competition controls, the same antibody was competed against itself, and mAb competition was performed bidirectionally.
(§2) Antibody binning by tandem octet was performed by immobilizing 10 ug/mL PSGL-1(ECD)-hFc1 (R&D Systems, Cat. #3345-PS) in PBS, pH 7.4, onto anti-human IgG capture biosensors (ForteBio, Cat. #18-5060), binding of 100 nM competitor antibody for 300 sec., followed by binding of 100 nM of analyte mAb for 300 s in kinetic buffer (0.1% BSA in PBS containing 0.02% tween 20 and 0.05% sodium azide, pH 7.4). Synagis (Johnson et al. (1997) J. Infect. Dis. 176:1215-1224) served as a negative control mAb for competition. An Fc quench step (0.25 mg/mL human IgG Fcl; BioXcell, Cat. #BE0096, in kinetic buffer) was included when human mAbs were tested to prevent high background from the antibodies binding to the anti-human IgG biosensor. Biosensor regeneration buffer consisted of 10 mM glycine, pH 2.0.

[4] = target: T4, Biotin PSGL-1(290-310) peptide; assay: ELISA; against WT PSGL-1(ECD)-hFc1
Method: (§3) A typical ELISA experiment involved binding of a single concentration or serially diluted mAb in assay buffer (3% BSA in PBS containing 0.05% Tween®20, pH 7.4) onto BSA blocked high binding microtiter plate half-wells (Corning Cat. #3690), which contained PSGL-1 protein or streptavidin-immobilized biotin peptide. After incubation for 45 min. at 37° C., the plate was washed 3 times with wash buffer (PBS containing 0.05% Tween®20, pH 7.4), and an appropriate HRP-conjugated secondary antibody added (25 ul/well) (HRP goat anti-mouse or anti-human IgG). After 45 min. incubation at 37° C., the plate was washed and antibody bound to plate-immobilized target was determined at A450 nm using HRP substrate (3,3′5,5′-tetramethylbenzidine (TMB)). For each antibody, duplicate values were averaged and assay background subtracted.

[5] = target: T3, Recombinant human PSGL-1(ECD)-hFc1 (R&D …); assay: Octet tandem; competitor 18K07
Method: as §1, §2

[6] = target: T3, Recombinant human PSGL-1(ECD)-hFc1 (R&D …); assay: Octet tandem; competitor 15A7
Method: as §1, §2

[7] = target: T3, Recombinant human PSGL-1(ECD)-hFc1 (R&D …); assay: Octet tandem; competitor 19L04
Method: as §1, §2

[8] = target: T3, Recombinant human PSGL-1(ECD)-hFc1 (R&D …); assay: Octet tandem; competitor 16E17
Method: as §1, §2

[9] = target: T3, Recombinant human PSGL-1(ECD)-hFc1 (R&D …); assay: Octet tandem; competitor 20G13
Method: as §1, §2

[10] = target: T4, Biotin PSGL-1(290-310) peptide; assay: ELISA, plate-bound peptide or protein
Method: as §3

[11] = target: T3, Recombinant human PSGL-1(ECD)-hFc1 (R&D …); assay: ELISA, plate-immobilized protein
Human PSGL-1(ECD)-HIS = target: T5, Human PSGL-1(ECD)-HIS; assay: ELISA, plate-immobilized protein
[12] = target: T3, Recombinant human PSGL-1(ECD)-hFc1 (R&D …); assay: Octet tandem; competitor 19N05
Method: as §1, §2

[13] = target: T3, Recombinant human PSGL-1(ECD)-hFc1 (R&D …); assay: Octet tandem; competitor 19J23
Method: as §1, §2

[14] = target: T6, Biotin PSGL-1(105-125) peptide; assay: ELISA, streptavidin-immobilized biotin peptide
Method: as §3

42-80 = target: T7, 42-80; assay: ELISA, streptavidin-immobilized biotin peptide
Method: as §3

[15] = target: T8, Biotin PSGL-1(42-62) peptide, unmodified; assay: ELISA, streptavidin-immobilized biotin peptide
Method: as §3

[16] = target: PSGL-1(ECD)-hFc1 I121A protein (Sino Biological) (human); assay: ELISA; against WT PSGL-1(ECD)-hFc1
Method: as §3

[17] = target: PSGL-1(ECD)-hFc1 S116A protein (Sino Biological) (human); assay: ELISA; against WT PSGL-1(ECD)-hFc1
Method: as §3

[18] = target: PSGL-1(ECD)-hFc1 M119A protein (Sino Biological) (human); assay: ELISA; against WT PSGL-1(ECD)-hFc1
Method: as §3

[19] = target: PSGL-1(ECD)-hFc1 I121A protein (Sino Biological) (human); assay: ELISA, plate-bound peptide or protein
Method: as §3

[20] = target: PSGL-1(ECD)-hFc1 S116A protein (Sino Biological) (human); assay: ELISA, plate-bound peptide or protein
Method: as §3

[21] = target: PSGL-1(ECD)-hFc1 M119A protein (Sino Biological) (human); assay: ELISA, plate-bound peptide or protein
Method: as §3

[22] = target: T3, Recombinant human PSGL-1(ECD)-hFc1 (R&D …); assay: blocking ELISA vs VISTA-Fc, pH 6.0
[23] = target: T3, Recombinant human PSGL-1(ECD)-hFc1 (R&D …); assay: blocking ELISA vs L-selectin-Fc
Method: (§4) A typical selectin blocking ELISA assay involved coating high binding half-well plates (Corning, Cat. #3690) with 2.5 ug/mL/25 ul per well of recombinant PSGL-1-Fc protein (R&D Systems, Cat #3345-PS) in PBS, pH 7.4, overnight at 4° C. […] Antibody (test and controls) was serially diluted (25 ul/well) in duplicate in assay buffer (3% BSA in wash buffer) into appropriate wells and the plate incubated for 45 min at 37° C. […] The plate was washed ×3 and HRP-conjugated streptavidin was added in assay buffer [25 ul per well; (Jackson Immunoresearch, Cat. #016-030-084)] and the plate incubated for 45 min at 37° C. […] For each antibody, an IC50 value was determined from sigmoidal fitted titration curves.

[24] = target: T6, Biotin PSGL-1(105-125) peptide; assay: ELISA; against WT PSGL-1(ECD)-hFc1
Method: as §3

[25] = target: T6, Biotin PSGL-1(105-125) peptide; assay: ELISA, plate-bound peptide or protein
Method: as §3

[26] = target: T9, PSGL-1(42-62) N-terminal peptide, …; assay: mAb binding to PSGL-1(42-62)
[27] = target: T3, Recombinant human PSGL-1(ECD)-hFc1 (R&D …); assay: blocking ELISA vs P-selectin-Fc
Method: as §4

Chain of PSGL-1(ECD)-hFc1 S116A protein (Sino Biological) (human) (chain, as listed by the source S116A S116A): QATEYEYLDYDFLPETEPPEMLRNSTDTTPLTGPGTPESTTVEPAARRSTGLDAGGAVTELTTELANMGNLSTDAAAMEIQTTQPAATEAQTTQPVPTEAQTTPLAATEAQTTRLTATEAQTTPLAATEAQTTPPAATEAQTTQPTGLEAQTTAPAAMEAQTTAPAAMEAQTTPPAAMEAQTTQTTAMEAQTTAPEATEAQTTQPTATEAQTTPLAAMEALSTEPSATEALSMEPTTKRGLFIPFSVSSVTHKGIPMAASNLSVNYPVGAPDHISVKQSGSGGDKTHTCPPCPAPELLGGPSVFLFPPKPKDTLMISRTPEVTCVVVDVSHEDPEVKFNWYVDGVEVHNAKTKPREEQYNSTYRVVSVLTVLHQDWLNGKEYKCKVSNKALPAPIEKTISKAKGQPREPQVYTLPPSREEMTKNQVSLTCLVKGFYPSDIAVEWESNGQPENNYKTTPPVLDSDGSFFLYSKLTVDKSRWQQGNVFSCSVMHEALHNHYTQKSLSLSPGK
Chain of PSGL-1(ECD)-hFc1 I121A protein (Sino Biological) (human) (chain, as listed by the source I121A I121A): as the sequence (chain, as listed by the source S116A S116A) above, with A75S, I80A counted along it

% binding of analyte mAb [3]	EC50/EC50WTprot [4]	% binding of analyte mAb [5]	% binding of analyte mAb [6]	% binding of analyte mAb [7]	% binding of analyte mAb [8]	% binding of analyte mAb [9]	EC50 [10]	EC50 (read off the curve) (Human PSGL-1(ECD)-HIS)	% binding of analyte mAb [12]	% binding of analyte mAb [13]	EC50/EC50WTprot [16]	EC50/EC50WTprot [17]	EC50/EC50WTprot [18]	EC50 [19]	EC50 [20]	EC50 [21]	Binder	further results
																	06G08 (antibody, IgG4, V domains shown) VH: EVKLLESGGGVVQPGGSLRLSCAVSGFTFSNYAMHWVRQAPGKGLEWVAVISFDGSNKYTADSVQGRFTISRDNSKNTLYLQMNSLTPEDTAVYYCASRIIRTVAGGDYWGQGTLVTVSS VL: not shown	binding result [1]: no binding (tested: 20 nM); EC50 [2]: 0.71 nM
52.1%	3.1 fold	100%	84.9%	68.9%	93.3%	55.9%	2.19 nM	~0.9 nM	76.6%	29.2%							19J23 (antibody, V domains shown, Non-functional anti-PSGL-1 mAb (Verseau); only variable domains given) VH: EVKLVESGGGLVQPGGSLSLSCAASGFTFTDYYMSWVRQPPGKALEWLALIRNKANGYTTEYSASVKGRFTISRDDSQSILYLQVNALRAEDVATYYCARPWDYWGQGTTLTVSS VL: not shown	binding result [11]: no binding (tested: Log M -7.4 (about 40 nM))
28.2%	< 1 fold	90.7%	61.9%	68.7%	124%	22%	< 0.5 nM	~0.7 nM	84.2%	26.9%	0.68 fold	0.67 fold	0.74 fold	0.55 nM	0.54 nM	0.6 nM	18F17 (antibody, V domains shown, Non-functional anti-PSGL-1 mAb (Verseau); only variable domains given) VH: QVTLKESGPGILQPSQTLSLTCSFSGFSLSTFGMGVGWIRQPSGKGLEWLAHIWWDDDKYYNPALKSRLTISKDTSKNQVFLKIANVDTADTATYYCAIYYDYGVGFDYWGQGTTLTVSS VL: DIVMTQAAPSVPVTPGESVSISCRSSKSLLHSNGYTFLYWFLQRPGQSPQLLIYRMSNLASGVPDRFSGSGSGTAFTLRISRVEAEDVGVYYCMQHLEYPFTFGTGTKLEIK	binding result [14]: no binding (tested: 10 nM); binding result (42-80): no binding (tested: 10 nM); binding result [15]: no binding (tested: 10 nM)
86.6%		91.5%	28.3%	48%	56.2%	15.1%			46.2%	94.3%	~60 fold	0.78 fold	~30 fold	~20 nM	0.25 nM	~10 nM	15A7 (antibody, V domains shown, Control mAb, recombinant; also called h15A7; 15A17) VH: EVQLVESGGGLVQPGGSLRLSCAASGFTFSSFGMHWVRQAPGKGLEWVAYINGGSSTIFYANAVKGRFTISRDNAKNTLYLQMNSLRAEDTAVYYCARYASYGGGAMDYWGQGTLVTVSS VL: DIQMTQSPSSLSASVGDRVTITCRSSQSIVHNDGNTYFEWYQQKPGKAPKLLIYKVSNRFSGVPSRFSGSGSGTHFTLTISSLQPEDFATYYCFQGSYVPLTFGQGTKVEIK	% max Block [22]: 0%; % max Block [23]: 0%; EC50/EC50WTprot [24]: 7.18 fold; EC50 [25]: 4.31 nM; binding result [26]: no binding; % max Block [27]: 0%
